This series deals with the molecule itself. In words: SDS-PAGE of outer membranes solubilised at 37 C or 100 C.

B1: DsrA (Ducreyi Serum Resistance A protein) of H. ducreyi strain 35000 (other)
chain: QQPPKFAGVSSLYSYEYDYGKGKWTWSNEGGFDIKVPGIKMKPKEWISKQATYLELQHYMPYTPVLVTYAPGVSPSPILLYPMSDPDQLGINRQQLKLNLYSYFNDLRHDFKLKVLDARISKNKQNIDTISKYLLELGTYLDDSYRMMEQNTHNINKLSKELQTGLANQSALSMLVQPNGVGKTSVSAAVGGYRDKTALAIGVGSRITDRFTAKAGVAFNTYNGGMSYGASVGYEF
notes: In Western blots DsrA was denatured, from outer membranes or total cellular proteins; In the vitronectin experiment it was on whole surface-iodinated bacteria and was then solubilised in detergent; It forms multimers of unstated number; also called 30 kDa protein; 30 kDa band
With B1, the binding result is “binds”.
